Experimental data reported in US20230390371A1, “ANTI-TUMOR IMMUNITY INDUCES THE PRESENTATION OF ABERRANT PEPTIDES” (STICHTING HET NEDERLANDS KANKER INSTITUUT-ANTONI VAN …, priority 2020, published 2023).

Columns and labels:
[1] = system: MD55A3 cells expressing the out-of-frame tGFP+1 reporter gene; assay: 2D-LC MS/MS full proteome, out-of-frame tGFP+1 reporter; type: cell-based, human; conditions: IFNγ-treated vs control MD55A3 cells, +1 out-of-frame tGFP
Description: For deeper proteome coverage in search of IFNγ-induced frameshifts, IFNγ- or mock treated melanoma cells were lysed and digested as described above, after which dried digests were subjected to basic reversed-phase (HpH-RP) high-performance liquid chromatography for offline peptide fractionation. 250 μg peptides were reconstituted in 95% 10 mM ammonium hydroxide (NH4OH, solvent A)/5% (90% acetonitrile (ACN)/10 mM NH4OH, solvent B) and loaded onto a Phenomenex Kinetex EVO C18 analytical column (150 mm×2.1 mm, particle size 5 μm, 100 Å pores) coupled to an Agilent 1260 HPLC system equipped with a fraction collector. […] All fractions were analyzed by nanoLC-MS/MS on an Orbitrap Fusion Tribrid mass spectrometer equipped with an Easy-nLC1000 system (Thermo Scientific) as described previously^72. […]
Further, the MS data was analyzed by MaxQuant (version 1.6.0.16)74. […] The in-frame protein expression data was further normalized and analyzed using DEP^76, For the frame-shift proteome analysis, the MS data was analyzed by MaxQuant (version 1.6.0.16)^74 with LFQ normalization, and then was scanned against the trans-frame polypeptide database together with the SWISSPROT proteins with Evidence level of 1. […] Only the peptides reproducibly detected across replicates were retained for further analysis, and the list included reverse peptide hits (n=41) (FIG. 4c). […]

MD55A3 melanoma cells = assay: V5-ATF4(1-63)-His frameshift reporter, His-tag pulldown and V5-tag immunoblotting; type: cell-based, human; conditions: IFNγ treatment vs control, MD55A3 cells
Text: FIG. 3: W-Bumps are associated with disordered out-of-frame peptides, and shortage in tryptophan leads to frameshifting events. • (a) Bar-plots depicting total occurrences of alpha-helices, beta-sheets and turns for tryptophan-containing peptide sequences corresponding to W-Bumps (left) and all remaining peptide sequences (middle), and the difference in percentages (right). […] Tryptophan shortage, on the other hand, can lead to stalling on the tryptophan codon (bottom left panel), or could in theory induce frameshifting events, leading to aberrant peptide production (lower right panel). Since secondary structure of growing polypeptide chains is attained in the lower tunnel of the ribosome, the loss of an a-helical secondary structure in this tunnel could hamper ribosomal progression. (c) Line-plots depicting the probability of disorderedness of peptide sequences. The position of the tryptophan is indicated by the dashed line. […] The green line represents the average probability of disorderedness of all peptides (‘All tryptophan codons’, n=36508). A group of outlier candidates that show relatively ordered out-of-frame peptide sequences were selected for comparisons (‘Selected tryptophan codons’, n=94, red). (d) Line-plots depicting mean frequency of RPFs at single nucleotide resolution across all tryptophans (green) and the selected outlier set (red) from panel 3c. […]

B1: IFNγ: interferon gamma (PeproTech), used at 250 U/mL (protein, UniProt P01579 24-161, looked up)
Interferon gamma: QDPYVKEAENLKKYFNAGHSDVADNGTLFLGILKNWKEESDRKIMQSQIVSFYFKLFKNFKDDQSIQKSVETIKEDMNVKFFNSNKKKRDDFEKLTNYSVTDLNVQRKAIHELIQVMAELSPAAKTGKRKRSQMLFRG
- induction of tGFP reporter peptide expression [1]: > 30 fold
- His-tag pulldown of +1 and +2 reporter proteins (frameshifting events) (MD55A3 melanoma cells): partially pulled down
